Laboratory results published in patent US20240092867A1 (UNIVERSITY OF CHICAGO, published 2024).

T1: placental growth factor (PlGF)-2 (human, UniProt P49763-3 19-170)
T1 construct: mature; Purchased in mature form
T1 sequence (looked up): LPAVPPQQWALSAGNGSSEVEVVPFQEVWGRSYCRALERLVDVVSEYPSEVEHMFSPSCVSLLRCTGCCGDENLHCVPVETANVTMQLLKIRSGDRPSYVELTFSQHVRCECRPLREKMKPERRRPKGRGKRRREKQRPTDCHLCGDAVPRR

T2: recombinant human syndecan-1 (human, UniProt P18827 23-254, limits assumed)
T2 construct: Histidine tag of unstated position and length
T2 sequence (looked up): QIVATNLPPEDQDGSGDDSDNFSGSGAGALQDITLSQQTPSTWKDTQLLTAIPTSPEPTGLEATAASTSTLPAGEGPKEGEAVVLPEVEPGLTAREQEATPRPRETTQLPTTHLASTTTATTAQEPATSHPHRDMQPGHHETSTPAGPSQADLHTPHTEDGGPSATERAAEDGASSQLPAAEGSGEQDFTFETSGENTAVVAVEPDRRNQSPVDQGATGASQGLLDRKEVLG

T3: recombinant human syndecan-4 (human, UniProt P31431 19-145, limits assumed)
T3 construct: Histidine tag of unstated position and length
T3 sequence (looked up): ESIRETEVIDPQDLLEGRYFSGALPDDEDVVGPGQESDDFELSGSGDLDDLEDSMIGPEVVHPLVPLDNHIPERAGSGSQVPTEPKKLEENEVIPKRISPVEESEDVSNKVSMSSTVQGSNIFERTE

T4: placental growth factor (PlGF)-1 (human, UniProt P49763-2 19-149)
T4 construct: mature; Purchased in mature form
T4 sequence (looked up): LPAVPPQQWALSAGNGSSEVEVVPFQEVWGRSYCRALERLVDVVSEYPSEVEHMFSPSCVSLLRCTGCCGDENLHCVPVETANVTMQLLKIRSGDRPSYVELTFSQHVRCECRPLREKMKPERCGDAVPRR

T5: vascular endothelial growth factor (VEGF)-A121 (human, UniProt P15692-9 27-147)
T5 construct: mature; Purchased in mature form, not glycosylated
T5 sequence (looked up): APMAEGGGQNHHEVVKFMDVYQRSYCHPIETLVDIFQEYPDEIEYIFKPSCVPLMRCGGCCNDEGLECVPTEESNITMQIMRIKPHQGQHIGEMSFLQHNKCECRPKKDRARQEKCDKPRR


Assays:
[1] = molecular target: T6, fibroblast growth factor (FGF)-2 (human, UniProt P09038 143-288); experiment: ELISA, HBD peptides
T6 construct: mature; Purchased in mature form

[2] = molecular target: T7, platelet-derived growth factor (PDGF)-BB (human, UniProt P01127 82-190); experiment: ELISA, HBD peptides
T7 construct: mature; Purchased in mature form

[3] = molecular target: T8, vascular endothelial growth factor (VEGF)-A165 (human, UniProt P15692-4 27-191); experiment: ELISA, HBD peptides
T8 construct: mature; Purchased in mature form, not glycosylated
Target sequence in this assay (P15692 other isoform, or with tags, fused parts or gaps limits assumed): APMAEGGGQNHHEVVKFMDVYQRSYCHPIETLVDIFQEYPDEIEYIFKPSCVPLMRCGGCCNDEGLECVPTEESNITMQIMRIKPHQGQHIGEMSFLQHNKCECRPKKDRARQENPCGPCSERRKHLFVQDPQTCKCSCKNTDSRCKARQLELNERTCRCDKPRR

laminin-511 = molecular target: T9, laminin-511 (human, UniProt O15230 36-3695; P07942 22-1786; P11047 34-1609); experiment: ELISA, GF coated, laminin 10 nM
T9 construct: Full-length recombinant human laminin isoform (BioLamina); chains read from the isoform name
Protocol: (§1) ELISA tests were performed as previously reported. In brief, ELISA plates (med-binding, Greiner Bio-One) were coated with 50 nM GFs at 37° C. for more than 2 hrs. […] Bound laminin was detected with rabbit anti-human laminin γ1 chain antibody (1:1000 dilution, Assay biotech) or rabbit anti-human laminin α3 chain antibody (1:1000 dilution, Assay biotech). After incubation with biotinylated anti-rabbit antibody for 60 min at room temperature (RT), HRP conjugated streptavidin (Jackson ImmunoResearch) was added. After 60 min of incubation at RT, 50 μL TMB substrate (Sigma-Aldrich) was added. The reactions were stopped by adding 25 μL of 2 N H₂SO₄. Subsequently, the absorbance at 450 nm was measured with a reference of 570 nm.

laminin-111 = molecular target: T10, laminin-111 (human, UniProt P25391 18-3075; P07942 22-1786; P11047 34-1609); experiment: ELISA, GF coated, laminin 10 nM
T10 construct: Full-length recombinant human laminin isoform (BioLamina); Chain composition is read from the isoform name
Protocol: as §1

laminin-332 = molecular target: T11, laminin-332 (human, UniProt Q16787 28-1724; Q13751 18-1172; Q13753 22-1193, limits assumed); experiment: ELISA, GF coated, laminin 10 nM
T11 construct: Full-length recombinant human laminin isoform (BioLamina); chains read from the isoform name
Protocol: as §1

laminin-521 = molecular target: T12, laminin-521 (human, UniProt O15230 36-3695; P55268 33-1798; P11047 34-1609); experiment: ELISA, GF coated, laminin 10 nM
T12 construct: Full-length recombinant human laminin isoform (BioLamina); chains read from the isoform name
Protocol: as §1

laminin-421 = molecular target: T13, laminin-421 (human, UniProt Q16363 25-1823; P55268 33-1798; P11047 34-1609); experiment: ELISA, GF coated, laminin 10 nM
T13 construct: Full-length recombinant human laminin isoform (BioLamina); chains read from the isoform name
Protocol: as §1

laminin-211 = molecular target: T14, laminin-211 (human, UniProt P24043 23-3122; P07942 22-1786; P11047 34-1609); experiment: ELISA, GF coated, laminin 10 nM
T14 construct: Full-length recombinant human laminin isoform (BioLamina); chains read from the isoform name
Protocol: as §1

laminin-411 = molecular target: T15, laminin-411 (human, UniProt Q16363 25-1823; P07942 22-1786; P11047 34-1609); experiment: ELISA, GF coated, laminin 10 nM
T15 construct: Full-length recombinant human laminin isoform (BioLamina); chains read from the isoform name
Protocol: as §1

human plasma-derived vWF = molecular target: T16, human plasma-derived vWF (human, UniProt P04275 764-2813); experiment: ELISA, GF coated 50 nM, vWF 1 µg/mL
T16 construct: mature; also called plasma-derived purified vWF; von Willebrand factor
Protocol: ELISA tests were performed as previously reported1. In brief, ELISA plates (med-binding, Greiner Bio-One) were coated with 50 nM GFs at 37° C. for 2 hrs. […] Then, HRP conjugated goat anti-rabbit antibody (Jackson ImmunoResearch) was added. After 60 min of incubation, 50 μL TMB substrate (Sigma-Aldrich) was added. The reaction was stopped by adding 25 μL of 2N H2SO4. Subsequently, the absorbance at 450 nm was measured and subtracted the absorbance at 570 nm.

[4] = molecular target: T6, fibroblast growth factor (FGF)-2; experiment: ELISA, peptide coated, GF 1 µg/mL
Protocol: (§2) (A) The location of laminin-derived peptides in the LG domain of laminin α3, α4, and α5 chains. (B-F) Affinity of heparin and GFs against chemically synthesized peptides derived from the LG domain of laminin α3, α4, and α5 chains. ELISA plates were coated with 10 μg/mL laminin peptide and further incubated with (B) biotinylated heparin, (C) VEGF-A165 and VEGF-A121, (D) PlGF-2 and PlGF-1, (E) PDGF-BB, or (F) FGF-2. Concentrations were 1 μg/mL for GFs and 10 μg/mL for heparin. Bound heparin was detected with streptavidin, and bound GFs with a specific antibody for each GF (n=4, mean±SEM). Statistical analyses were done using the Mann-Whitney U test by comparing the signals obtained from the laminin peptide- and the BSA-coated wells. *p<0.05, **p<0.01.
(§3) ELISA tests were performed as described above. […] 1 μg/mL of BSA served as non-binding protein control. After blocking with 2% BSA PBS-0.05% Tween 20 (PBS-T) solution, 1 μg/mL of the recombinant human proteins (VEGF-A121, VEGF-A165, PlGF-1, PlGF-2, PDGF-BB or FGF-2) or 10 μg/mL of biotinylated heparin (Sigma-Aldrich) were added. Bound GF was detected with biotinylated antibodies for human VEGF, PlGF, PDGF-BB, or FGF-2 (R&D Systems). The antibodies were detected by streptavidin-HRP (R&D Systems).

[5] = molecular target: T8, vascular endothelial growth factor …; experiment: ELISA, peptide coated, GF 1 µg/mL
Protocol: as §2, §3

[6] = molecular target: T1, placental growth factor (PlGF)-2; experiment: ELISA, peptide coated, GF 1 µg/mL
Protocol: as §2, §3

[7] = molecular target: T17, recombinant human syndecan-2 (human, UniProt P34741 19-144, limits assumed); experiment: ELISA, peptide coated, syndecan 1 µg/mL, anti-His detection
T17 construct: Histidine tag of unstated position and length
Protocol: (§4) ELISA tests were performed as described above. In brief, ELISA plates were coated with 1 μg/mL laminin peptide (sequences are described in Table 1, chemically synthesized by Genscript) in PBS for 2 hrs at 37° C. 1 μg/mL of BSA served as non-binding protein control. After blocking with 2% BSA PBS-T solution, 1 μg/mL of the recombinant human syndecan-1, syndecan-2, syndecan-3, syndecan-4 (all syndecan proteins are histidine-tagged; SinoBiological) were added. Bound GF was detected with anti-histidine tag antibody (1:1000 dilution, BioLegend).

[8] = molecular target: T2, recombinant human syndecan-1; experiment: as above
Protocol: as §4

[9] = molecular target: T3, recombinant human syndecan-4; experiment: as above
Protocol: as §4

[10] = molecular target: T4, placental growth factor (PlGF)-1; experiment: ELISA, peptide coated
Protocol: as §2, §3

[11] = molecular target: T5, vascular endothelial growth factor …; experiment: ELISA, peptide coated
Protocol: as §2, §3

T7 sequence (P01127 82-190): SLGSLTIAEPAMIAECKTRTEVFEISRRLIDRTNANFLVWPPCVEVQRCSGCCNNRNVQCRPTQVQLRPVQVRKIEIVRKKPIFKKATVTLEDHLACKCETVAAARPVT
T6 sequence (P09038 143-288): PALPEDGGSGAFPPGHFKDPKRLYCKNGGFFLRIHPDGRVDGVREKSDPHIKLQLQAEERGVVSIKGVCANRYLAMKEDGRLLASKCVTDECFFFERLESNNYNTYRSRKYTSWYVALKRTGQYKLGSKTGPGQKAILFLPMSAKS
T11 sequence (Q16787 other isoform, or with tags, fused parts or gaps limits assumed, chain 1 of 3): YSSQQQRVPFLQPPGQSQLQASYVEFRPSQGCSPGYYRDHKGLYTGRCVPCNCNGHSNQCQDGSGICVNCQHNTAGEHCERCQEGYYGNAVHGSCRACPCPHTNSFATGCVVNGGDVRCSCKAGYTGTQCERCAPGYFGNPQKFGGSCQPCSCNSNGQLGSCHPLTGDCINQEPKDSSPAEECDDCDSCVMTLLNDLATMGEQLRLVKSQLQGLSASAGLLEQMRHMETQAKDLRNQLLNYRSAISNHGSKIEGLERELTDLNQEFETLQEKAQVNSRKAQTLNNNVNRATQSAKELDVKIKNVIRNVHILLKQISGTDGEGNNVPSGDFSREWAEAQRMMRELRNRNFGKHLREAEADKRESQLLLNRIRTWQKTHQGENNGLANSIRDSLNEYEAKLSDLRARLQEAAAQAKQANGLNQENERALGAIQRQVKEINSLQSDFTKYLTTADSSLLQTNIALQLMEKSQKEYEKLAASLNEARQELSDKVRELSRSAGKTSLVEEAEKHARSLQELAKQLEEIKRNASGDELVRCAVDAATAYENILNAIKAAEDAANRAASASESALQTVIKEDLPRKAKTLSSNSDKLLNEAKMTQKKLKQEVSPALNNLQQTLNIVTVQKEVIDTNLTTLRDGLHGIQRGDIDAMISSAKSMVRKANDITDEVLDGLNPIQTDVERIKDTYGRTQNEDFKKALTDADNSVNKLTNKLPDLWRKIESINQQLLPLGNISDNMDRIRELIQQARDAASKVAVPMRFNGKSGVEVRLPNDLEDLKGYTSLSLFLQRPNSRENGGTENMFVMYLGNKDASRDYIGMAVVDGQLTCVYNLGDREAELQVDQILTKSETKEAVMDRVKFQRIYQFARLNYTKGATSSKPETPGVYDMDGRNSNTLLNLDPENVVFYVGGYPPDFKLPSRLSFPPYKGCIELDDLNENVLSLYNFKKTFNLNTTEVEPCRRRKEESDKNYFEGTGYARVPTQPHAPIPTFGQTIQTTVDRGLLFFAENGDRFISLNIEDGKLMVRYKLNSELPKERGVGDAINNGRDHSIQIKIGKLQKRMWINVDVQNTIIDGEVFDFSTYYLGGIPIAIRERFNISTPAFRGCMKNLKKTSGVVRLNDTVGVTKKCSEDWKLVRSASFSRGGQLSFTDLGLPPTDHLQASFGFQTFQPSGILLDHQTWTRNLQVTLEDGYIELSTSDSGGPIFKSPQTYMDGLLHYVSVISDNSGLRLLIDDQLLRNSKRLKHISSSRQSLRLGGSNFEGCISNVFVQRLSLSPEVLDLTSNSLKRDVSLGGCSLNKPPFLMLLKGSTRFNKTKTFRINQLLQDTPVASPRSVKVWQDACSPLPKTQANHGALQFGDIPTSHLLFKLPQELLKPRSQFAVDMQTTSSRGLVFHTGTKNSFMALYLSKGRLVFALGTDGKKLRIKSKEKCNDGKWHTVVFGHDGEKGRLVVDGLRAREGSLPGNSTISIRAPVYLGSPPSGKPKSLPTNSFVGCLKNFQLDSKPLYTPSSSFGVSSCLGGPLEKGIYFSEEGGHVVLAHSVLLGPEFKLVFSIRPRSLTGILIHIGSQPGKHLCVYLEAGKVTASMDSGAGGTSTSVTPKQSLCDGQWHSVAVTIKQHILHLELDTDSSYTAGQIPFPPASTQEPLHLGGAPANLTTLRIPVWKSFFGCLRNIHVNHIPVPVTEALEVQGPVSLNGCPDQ
T11 sequence (Q13751 18-1172 limits assumed, chain 2 of 3): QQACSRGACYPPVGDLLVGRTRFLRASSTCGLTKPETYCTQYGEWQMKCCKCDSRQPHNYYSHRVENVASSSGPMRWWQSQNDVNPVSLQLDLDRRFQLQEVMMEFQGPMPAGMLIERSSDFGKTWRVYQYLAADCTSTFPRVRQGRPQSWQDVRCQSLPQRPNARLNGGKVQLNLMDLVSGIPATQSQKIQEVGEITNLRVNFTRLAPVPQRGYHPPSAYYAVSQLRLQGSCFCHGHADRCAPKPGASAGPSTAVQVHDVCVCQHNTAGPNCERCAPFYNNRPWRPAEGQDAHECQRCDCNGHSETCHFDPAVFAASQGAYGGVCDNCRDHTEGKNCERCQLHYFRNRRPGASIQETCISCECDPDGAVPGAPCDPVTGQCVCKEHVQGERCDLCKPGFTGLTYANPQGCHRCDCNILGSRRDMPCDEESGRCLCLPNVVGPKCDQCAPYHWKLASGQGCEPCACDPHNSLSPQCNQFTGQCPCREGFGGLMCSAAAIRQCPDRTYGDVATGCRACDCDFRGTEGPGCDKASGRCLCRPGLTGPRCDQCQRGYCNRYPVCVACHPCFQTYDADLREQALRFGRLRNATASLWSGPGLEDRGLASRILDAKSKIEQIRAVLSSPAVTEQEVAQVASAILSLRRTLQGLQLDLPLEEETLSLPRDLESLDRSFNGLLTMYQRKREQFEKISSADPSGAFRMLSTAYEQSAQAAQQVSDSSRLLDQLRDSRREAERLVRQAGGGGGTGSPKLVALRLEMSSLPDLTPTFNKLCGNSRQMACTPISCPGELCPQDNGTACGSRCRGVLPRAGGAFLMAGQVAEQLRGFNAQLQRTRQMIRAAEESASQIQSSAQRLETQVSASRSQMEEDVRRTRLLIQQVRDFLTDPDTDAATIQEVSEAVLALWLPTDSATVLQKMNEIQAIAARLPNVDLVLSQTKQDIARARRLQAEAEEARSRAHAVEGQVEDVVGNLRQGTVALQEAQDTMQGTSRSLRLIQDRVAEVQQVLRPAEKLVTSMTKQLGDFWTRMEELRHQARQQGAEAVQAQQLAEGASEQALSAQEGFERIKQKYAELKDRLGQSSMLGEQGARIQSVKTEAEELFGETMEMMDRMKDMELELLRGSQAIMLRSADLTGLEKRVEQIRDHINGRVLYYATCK
T11 sequence (Q13753 22-1193 limits assumed, chain 3 of 3): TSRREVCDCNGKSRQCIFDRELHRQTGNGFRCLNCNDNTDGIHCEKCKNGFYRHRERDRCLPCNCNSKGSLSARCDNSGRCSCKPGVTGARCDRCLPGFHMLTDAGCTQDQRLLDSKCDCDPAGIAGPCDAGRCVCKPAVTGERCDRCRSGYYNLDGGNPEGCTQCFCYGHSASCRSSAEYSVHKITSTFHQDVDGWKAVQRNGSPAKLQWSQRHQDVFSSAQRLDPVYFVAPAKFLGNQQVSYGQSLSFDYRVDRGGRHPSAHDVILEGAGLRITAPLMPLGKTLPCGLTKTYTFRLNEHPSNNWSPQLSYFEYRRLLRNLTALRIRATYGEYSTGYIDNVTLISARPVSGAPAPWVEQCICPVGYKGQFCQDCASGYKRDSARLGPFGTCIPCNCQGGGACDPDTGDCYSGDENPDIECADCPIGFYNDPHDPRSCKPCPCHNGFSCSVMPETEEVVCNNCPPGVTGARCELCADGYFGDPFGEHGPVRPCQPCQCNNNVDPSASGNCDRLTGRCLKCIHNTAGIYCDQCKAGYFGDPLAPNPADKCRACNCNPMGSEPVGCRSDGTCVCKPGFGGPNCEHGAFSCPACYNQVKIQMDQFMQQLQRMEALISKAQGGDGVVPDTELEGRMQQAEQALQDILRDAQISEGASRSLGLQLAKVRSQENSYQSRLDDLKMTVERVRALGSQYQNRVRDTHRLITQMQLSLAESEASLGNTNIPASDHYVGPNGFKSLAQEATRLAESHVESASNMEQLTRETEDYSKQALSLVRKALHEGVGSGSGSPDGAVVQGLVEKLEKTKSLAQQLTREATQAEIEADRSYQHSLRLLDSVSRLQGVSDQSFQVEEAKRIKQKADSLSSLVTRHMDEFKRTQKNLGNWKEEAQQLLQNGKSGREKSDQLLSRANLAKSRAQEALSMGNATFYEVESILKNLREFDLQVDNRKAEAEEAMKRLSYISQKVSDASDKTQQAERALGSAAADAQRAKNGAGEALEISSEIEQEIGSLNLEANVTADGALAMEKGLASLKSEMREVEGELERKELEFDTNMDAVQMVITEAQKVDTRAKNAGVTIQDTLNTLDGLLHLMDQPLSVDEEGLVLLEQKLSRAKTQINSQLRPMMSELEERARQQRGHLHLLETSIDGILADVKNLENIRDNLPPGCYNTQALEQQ
T17 sequence (P34741 19-144 limits assumed): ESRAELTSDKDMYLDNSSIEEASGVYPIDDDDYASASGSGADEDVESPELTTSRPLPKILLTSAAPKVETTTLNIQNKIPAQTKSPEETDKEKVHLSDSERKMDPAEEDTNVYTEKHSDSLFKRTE

| Binder | binding result [1] | binding result [2] | binding result [3] | binding result (laminin-511) | binding result (laminin-111) | binding result (laminin-332) | binding result (laminin-521) | binding result (laminin-421) | binding result (laminin-211) | binding result (laminin-411) | other results |
| --- | --- | --- | --- | --- | --- | --- | --- | --- | --- | --- | --- |
| YIGLKDRKRPSELLRIASQVKYA (The entry already carries the substitution) [vWF A1 HBD R1341L] | no binding | no binding | no binding |  |  |  |  |  |  |  |  |
| YIGLKDRKRPSELPRIASQVKYA (The entry already carries the substitution) [vWF A1 HBD R1341P] | no binding | no binding | no binding |  |  |  |  |  |  |  |  |
| YIGLKDRKRPSELQRIASQVKYA (The entry already carries the substitution) [vWF A1 HBD R1341Q] | no binding | no binding | no binding |  |  |  |  |  |  |  |  |
| YIGLKDRKRPSELWRIASQVKYA (The entry already carries the substitution) [vWF A1 HBD R1341W] | no binding | no binding | no binding |  |  |  |  |  |  |  |  |
| YIGLKDRKRPSELSRIASQVKYA (The entry already carries the substitution) [vWF A1 HBD R1341S] | no binding | no binding | no binding |  |  |  |  |  |  |  |  |
| fibroblast growth factor (FGF)-6 (ligand, UniProt P10767 38-208, looked up, mature; Purchased in mature form) SPAGTRANNTLLDSRGWGTLLSRSRAGLAGEIAGVNWESGYLVGIKRQRRLYCNVGIGFHLQVLPDGRISGTHEENPYSLLEISTVERGVVSLFGVRSALFVAMNSKGRLYATPSFQEECKFRETLLPNNYNAYESDLYQGTYIALSKYGRVKRGSKVSPIMTVTHFLPRI |  |  |  | no binding (tested: A450 0.1) | no binding (tested: A450 0.1) | no binding (tested: A450 0.1) | no binding (tested: A450 0.1) | no binding (tested: A450 0.1) | no binding (tested: A450 0.1) | no binding (tested: A450 0.1) | binding result (human plasma-derived vWF): no binding |
| TLFLAHGRLVYMFNVGHKKLKIR (Chemically synthesized (Genscript)) [laminin α4 1521-1543 peptide (LG4)] |  |  |  |  |  |  |  |  |  |  | binding result [4]: binds; binding result [5]: binds; binding result [6]: binds; binding result [7]: binds; binding result [8]: binds; binding result [9]: binds; binding result [10]: no binding (tested: 1 µg/mL); binding result [11]: no binding (tested: 1 µg/mL) |
| bone morphogenetic protein (BMP)-7 (ligand, UniProt P18075 293-431, looked up, mature; Purchased in mature form) STGSKQRSQNRSKTPKNQEALRMANVAENSSSDQRQACKKHELYVSFRDLGWQDWIIAPEGYAAYYCEGECAFPLNSYMNATNHAIVQTLVHFINPETVPKPCCAPTQLNAISVLYFDDSSNVILKKYRNMVVRACGCH |  |  |  | no binding (tested: A450 0.1) | no binding (tested: A450 0.1) | no binding (tested: A450 0.1) | no binding (tested: A450 0.1) | no binding (tested: A450 0.1) | no binding (tested: A450 0.1) | no binding (tested: A450 0.1) | binding result (human plasma-derived vWF): no binding |
| bone morphogenetic protein (BMP)-4 (ligand, UniProt P12644 293-408, looked up, mature; Purchased in mature form) SPKHHSQRARKKNKNCRRHSLYVDFSDVGWNDWIVAPPGYQAFYCHGDCPFPLADHLNSTNHAIVQTLVNSVNSSIPKACCVPTELSAISMLYLDEYDKVVLKNYQEMVVEGCGCR |  |  |  | no binding (tested: A450 0.1) | no binding (tested: A450 0.1) | no binding (tested: A450 0.1) | no binding (tested: A450 0.1) | no binding (tested: A450 0.1) | no binding (tested: A450 0.1) | no binding (tested: A450 0.1) |  |
